Measurements from publication PMC11457862.
Positions count from the first letter of the chain named. Numbers in names are those of the source. Blank lines part the entries; values can stand above or below the binder they belong to.

Key:
[1] = target: human IL-2 (amino acids 1-133), soluble, P60568; assay: yeast display titration; settings: chain shown with the change
[2] = target: human IL-2 (amino acids 1-133), soluble, P60568; assay: yeast display competition (IL-2 binding in the presence of soluble IL-2Rα competitor); settings: chain shown with the change; IL-2 5 nM; IC50 is the concentration of soluble IL-2Rα competitor (Dm27)
[3] = target: T1, biotinylated human IL-2Rβ ectodomain (amino acids 1-214) (human) (UniProt P14784); assay: BLI; same set-up as a3; equilibrium titration, first-order fit (Supplemental Figure 4A-C, Supplemental Table 4)
T1 sequence (chain, biotin on the biotin acceptor peptide (BirA ligase)): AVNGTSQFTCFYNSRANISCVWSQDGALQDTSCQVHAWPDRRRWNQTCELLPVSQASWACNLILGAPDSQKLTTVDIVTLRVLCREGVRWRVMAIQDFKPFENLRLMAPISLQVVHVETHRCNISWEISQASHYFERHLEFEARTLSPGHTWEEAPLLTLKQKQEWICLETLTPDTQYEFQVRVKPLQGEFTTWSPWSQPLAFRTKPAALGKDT

[4] = target: biotinylated human IL-2Rα ectodomain (amino acids 1-217) (human); assay: BLI; same set-up as a1; equilibrium titration of the response at the end of the association phase, first-order fit (Figures 2 and 3, Supplemental Table 1)
[5] = target: T1, biotinylated human IL-2Rβ ectodomain (amino acids 1-214) (human); assay: as above

EC50 [1]: 0.4 nM
IC50 [2]: 1120 nM
B1: yeast-displayed 602 scFv T101S; F225S; G227D (protein)
chain 1: EVQLQESGPGLVAPSQSLSITCTVSGFSLTNYDISWIRQPPGKGLEWLGVIWTGGGTNYNSGFMSRLSITKDNSKSQVFLKMNSLQTDDTAIYYCVRQGRSPYWGQGTLVTVSA
chain 2: DIQVTQSPSSLSVSLGDRVTITCKASKDIYNRLAWYQQKPGNAPRLLISGATSLETGVPSRFSGSGSGKDYTLTITSLQTEDVATYYCQQSWDTPYTFGGGTKLEIK

Kd [3]: > 2000 nM
Kd [4]: > 2000 nM
Kd [5]: > 2000 nM
B2: anti-human IL-2 antibody 602 (MAB602), recombinant mouse IgG2a kappa (antibody, V domains shown)
VH: B1 chain 1 with S101T
VL: B1 chain 2 with S91F, D93G
